Test results reported in paper PMC10413161.

B1: human complement C1r, zymogen form (enzyme)
chain: SIPIPQKLFGEVTSPLFPKPYPNNFETTTVITVPTGYRVKLVFQQFDLEPSEGCFYDYVKISADKKSLGRFCGQLGSPLGNPPGKKEFMSQGNKMLLTFHTDFSNEENGTIMFYKGFLAYYQAVDLDECASRSKSGEEDPQPQCQHLCHNYVGGYFCSCRPGYELQEDTHSCQAECSSELYTEASGYISSLEYPRSYPPDLRCNYSIRVERGLTLHLKFLEPFDIDDHQQVHCPYDQLQIYANGKNIGEFCGKQRPPDLDTSSNAVDLLFFTDESGDSRGWKLRYTTEIIKCPQPKTLDEFTIIQNLQPQYQFRDYFIATCKQGYQLIEGNQVLHSFTAVCQDDGTWHRAMPRCKIKDCGQPRNLPNGDFRYTTTMGVNTYKARIQYYCHEPYYKMQTRAGSRESEQGVYTCTAQGIWKNEQKGEKIPRCLPVCGKPVNPVEQRQRIIGGQKAKMGNFPWQVFTNIHGRGGGALLGDRWILTAAHTLYPKEHEAQSNASLDVFLGHTNVEELMKLGNHPIRRVSVHPDYRQDESYNFEGDIALLELENSVTLGPNLLPICLPDNDTFYDLGLMGYVSGFGVMEEKIAHDLRFVRLPVANPQACENWLRGKNRMDVFSQNMFCAGHPSLKQDACQGDSGGVFAVRDPNTDRWVATGIVSWGIGCSRGYGFYTKVLNYVDWIKKEMEEED
B2: human complement C1r, activated form (enzyme)
chain: B1 chain

Columns and labels:
[1] = biological target: human complement C1r, zymogen form (human) (UniProt P00736)
[2] = biological target: Borrelia hermsii strain HS1 FbpC C-terminal domain, residues 212-374, R248A (Borrelia hermsii strain HS1); assay: SPR; FbpC-C, FbpC-C R248A or FbpC-C H252A immobilised by amine coupling on a CMD200 chip (1138.2, 975.2, 1082 RU); zymogen or active C1r injected, single-cycle five-fold dilution series 0.16 to 100 nM; Biacore T200, 25 °C, 30 μl/min; HBS-T (10 mM Hepes pH 7.3, 140 mM NaCl, 0.005% Tween 20) with 5 mM CaCl2; kinetic fits, triplicate
[3] = biological target: Borrelia hermsii strain HS1 FbpC C-terminal domain, residues 212-374 (Borrelia hermsii strain HS1); assay: as above
[4] = biological target: Borrelia hermsii strain HS1 FbpC C-terminal domain, residues 212-374, H252A (Borrelia hermsii strain HS1); assay: as above

Molecule | CP-specific complement ELISA (C4b deposition, 2% normal human serum), IC50 [1] [nM] | CP hemolysis of presensitized sheep erythrocytes (2% normal human serum), IC50 [1] [nM] | Kd [2] [nM] | koff [2] [s⁻¹] | kon [2] [M⁻¹ s⁻¹] | Kd [3] [nM] | koff [3] [s⁻¹] | kon [3] [M⁻¹ s⁻¹] | Kd [4] [nM] | koff [4] [s⁻¹] | kon [4] [M⁻¹ s⁻¹]
Borrelia hermsii strain HS1 FbpC C-terminal domain, residues 212-374, H252A (domain or fragment) | 300 | – | – | – | – | – | – | – | – | – | –
Borrelia hermsii strain HS1 FbpC C-terminal domain, residues 212-374, R248A (domain or fragment) | 23 | 1200 | – | – | – | – | – | – | – | – | –
Borrelia hermsii strain HS1 FbpC C-terminal domain, residues 212-374 (domain or fragment) | 8.6 | 320 | – | – | – | – | – | – | – | – | –
B1 | – | – | 13 | 0.00063 | 69000 | 1.2 | 5.4e-05 | 44000 | – | – | –
B2 | – | – | 0.19 | 9.4e-06 | 45000 | 0.3 | 1.4e-05 | 48000 | 2.4 | 0.00012 | 51000
